For assay [1], the target named is recombinant human extracellular domain of IGF2R (human) (UniProt P11717). The assay can be described thus: titration ELISA of the Alexa Fluor 647 conjugate on recombinant hIGF2R-ECD, one-site specific binding fit.
Assay [2] shares this target. The assay can be described thus: titration ELISA on recombinant hIGF2R-ECD, direct read-out of the Alexa Fluor 647 conjugate (fluorescence intensity 700 nm), one-site specific binding fit (Examples 4.1, 6.1).
Assay [3] has the same target. The assay can be described thus: binding assay on plates coated with hIGF2R-ECD, three-fold VHH dilutions, bound VHH detected with anti-VHH antibody (Example 4.1); y axis OD415.
Assay [4] shares this target. The assay is described as follows: binding assay on hIGF2R-ECD coated plates, detection with anti-VHH antibody.
The target is the same in assay [5]. The assay is described as follows: titration ELISA on hIGF2R-ECD, direct read out at 647 nm, one-site specific binding fit.
For the next assay, the target named is rat IGF2R on cells (rat). The assay can be described thus: cell-based or functional assay.
The target of assay [6] is human IGF2R on cells (human) (UniProt P11717). The assay can be described thus: cell-based or functional assay.
Assay [7] addresses recombinant human extracellular domain of IGF2R (human) (UniProt P11717). The assay can be described thus: competition ELISA on human IGF2R ectodomain: 250 nM unlabelled 13E8 against 10 nM labelled 13F11 (competitor: 13F11-A647).

Some results are limits rather than exact numbers.

B1: 13F11-13F11 conjugated to Alexa Fluor 647 (VHH, part only; not given: C-terminal cysteine and His tag, not shown: small tags and cut ends)
chain, part: EVQLVESGGRLVQPGDSLRLSCAASGRTFSDNAMGWFRQAPGKERRFVAGISWAGGSTYYSDSVKGRFTISRDNAKNTVYLQMNSLKPEDTAVYYCAAGLRAWVQRMPKDYNYWGQGTQVTVSSGGGGSGGGGSGGGGSEVQLVESGGRLVQPGDSLRLSCAASGRTFSDNAMGWFRQAPGKERRFVAGISWAGGSTYYSDSVKGRFTISRDNAKNTVYLQMNSLKPEDTAVYYCAAGLRAWVQRMPKDYNYWGQGTQVTVSS
modifications: Alexa Fluor 647 by maleimide chemistry on the C-terminal free cysteine
As to B1, in assay [1], the Kd amounted to 3.1 nM. The Bmax in assay [2] amounted to 63.4.

B2: 13C11 (VHH)
VHH: EVQLVESGGGLVQAGGSLRLSCAASGLTFSSYTMAWYRQAPGKEREVVAAISSGDSIYHEGSVQGRFIISRDNAKNTVYLQMNSLKAEDTAVYYCRANGPGTYWGQGTQVTVSS
Regarding B2, in assay [3], the EC50 (read off the curve) turned out to be 3 nM.

B3: 13G10 (VHH)
VHH: EVQLVESGGGLVQAGGSLRLSCAASGLTFSSYTMAWYRQAPGKEREVVAAISSGDSIYHEDSVQGRFIISRDNAKNTVYLQMNSLKAEDTAVYYCRANGPGTYWGQGTQVTVSS
Consider B3, for which, in assay [3], the EC50 (read off the curve) is 2 nM.

B4: 13F11 (VHH)
VHH: EVQLVESGGRLVQPGDSLRLSCAASGRTFSDNAMGWFRQAPGKERRFVAGISWAGGSTYYSDSVKGRFTISRDNAKNTVYLQMNSLKPEDTAVYYCAAGLRAWVQRMPKDYNYWGQGTQVTVSS
Take B4: the Kd in assay [4] worked out at 0.23 nM. The EC50 (read off the curve) in assay [3] came out at 0.4 nM.

B5: 13F11 conjugated to Alexa Fluor 647 (VHH, not shown: small tags and cut ends)
VHH: EVQLVESGGRLVQPGDSLRLSCAASGRTFSDNAMGWFRQAPGKERRFVAGISWAGGSTYYSDSVKGRFTISRDNAKNTVYLQMNSLKPEDTAVYYCAAGLRAWVQRMPKDYNYWGQGTQVTVSS
modifications: Alexa Fluor 647 by maleimide chemistry on the C-terminal free cysteine
As to B5, the Bmax in assay [2] amounted to 20.1. Also, the dissociation constant (Kd) in assay [5] came out at 1 nM.

B6: 13E8-13F11 conjugated to IRD800CW (VHH, not shown: small tags and cut ends)
chain: EVQLVESGGGLVQAGGSLRLSCAASRSISPMGWYRQAPGKQRELVAIMPSSGPPIYADSVQGRFTISRDNAKNTVYLQMNSLKPEDTAVYYCNVGGGYWGQGTQVTVSSGGGGSGGGGSGGGGSEVQLVESGGRLVQPGDSLRLSCAASGRTFSDNAMGWFRQAPGKERRFVAGISWAGGSTYYSDSVKGRFTISRDNAKNTVYLQMNSLKPEDTAVYYCAAGLRAWVQRMPKDYNYWGQGTQVTVSS
modifications: IRD800CW by maleimide chemistry on the C-terminal free cysteine
With B6, the figures for the endocytic rate constant, ke (with rat IGF2R on cells (rat); in assay [6]) were 0.7 min⁻¹ and 1.5 min⁻¹, respectively.

B7: 13E8-13F11 conjugated to Alexa Fluor 647 (VHH, not shown: small tags and cut ends)
chain: EVQLVESGGGLVQAGGSLRLSCAASRSISPMGWYRQAPGKQRELVAIMPSSGPPIYADSVQGRFTISRDNAKNTVYLQMNSLKPEDTAVYYCNVGGGYWGQGTQVTVSSGGGGSGGGGSGGGGSEVQLVESGGRLVQPGDSLRLSCAASGRTFSDNAMGWFRQAPGKERRFVAGISWAGGSTYYSDSVKGRFTISRDNAKNTVYLQMNSLKPEDTAVYYCAAGLRAWVQRMPKDYNYWGQGTQVTVSS
modifications: Alexa Fluor 647 by maleimide chemistry on the C-terminal free cysteine
Consider B7, for which the Kd in assay [1] came to 2.5 nM. In assay [2], the Bmax is 94.7.

B8: 13E8 (VHH)
VHH: EVQLVESGGGLVQAGGSLRLSCAASRSISPMGWYRQAPGKQRELVAIMPSSGPPIYADSVQGRFTISRDNAKNTVYLQMNSLKPEDTAVYYCNVGGGYWGQGTQVTVSS
B8: in assay [7], the decrease of the fluorescence intensity of labelled 13F11 was less than 5%.

B9: 13F11-13E8 conjugated to Alexa Fluor 647 (VHH, not shown: small tags and cut ends)
chain: EVQLVESGGRLVQPGDSLRLSCAASGRTFSDNAMGWFRQAPGKERRFVAGISWAGGSTYYSDSVKGRFTISRDNAKNTVYLQMNSLKPEDTAVYYCAAGLRAWVQRMPKDYNYWGQGTQVTVSSGGGGSGGGGSGGGGSEVQLVESGGGLVQAGGSLRLSCAASRSISPMGWYRQAPGKQRELVAIMPSSGPPIYADSVQGRFTISRDNAKNTVYLQMNSLKPEDTAVYYCNVGGGYWGQGTQVTVSS
modifications: Alexa Fluor 647 by maleimide chemistry on the C-terminal free cysteine
Regarding B9, the Kd in assay [1] came to 2.5 nM. In addition, the Bmax in assay [2] stood at 79.2.
